Experiments:
[1] = molecular target: T1, rhIL-21-His (AB235875-1001, Abcam) (human, UniProt Q9HBE4 30-162); experiment: SPR, Fab on captured rhIL-21-His
T1 construct: bought; not shown: His tag, length and position not described

[2] = molecular target: T2, cynomolgus PD-1 (#PD1-C52H5, AcroBiosystems) (cynomolgus monkey, UniProt B0LAJ3 25-170); experiment: SPR, PD-1 on captured IgG1
T2 construct: bought; also called cynomolgus monkey PD-1; not shown: the vendor's tag on the recombinant protein (AcroBiosystems #PD1-C52H5)

[3] = molecular target: T3, human PD-1 (#PD1-H82E4, AcroBiosystems) (human, UniProt Q15116 25-167); experiment: SPR, PD-1 on captured IgG1
T3 construct: bought
T3 sequence (Q15116 25-167 limits assumed): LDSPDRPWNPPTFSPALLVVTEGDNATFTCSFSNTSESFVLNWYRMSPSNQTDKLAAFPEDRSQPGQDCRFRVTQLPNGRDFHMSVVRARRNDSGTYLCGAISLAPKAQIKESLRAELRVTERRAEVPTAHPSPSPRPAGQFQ

T2 sequence (B0LAJ3 entry or part of it limits assumed, form in doubt): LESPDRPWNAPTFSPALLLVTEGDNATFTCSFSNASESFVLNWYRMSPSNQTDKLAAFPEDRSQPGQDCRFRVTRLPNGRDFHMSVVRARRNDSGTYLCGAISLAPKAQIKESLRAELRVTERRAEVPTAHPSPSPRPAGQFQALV
T1 sequence (Q9HBE4 30-162 limits assumed): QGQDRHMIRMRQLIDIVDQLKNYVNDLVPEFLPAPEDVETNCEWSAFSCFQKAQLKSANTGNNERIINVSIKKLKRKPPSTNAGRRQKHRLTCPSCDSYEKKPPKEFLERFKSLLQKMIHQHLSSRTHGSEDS

Binder	Kd [1] [nM]	koff [1] [s⁻¹]	kon [1] [M⁻¹ s⁻¹]	Kd [2] [nM]	koff [2] [s⁻¹]	kon [2] [M⁻¹ s⁻¹]	Kd [3] [nM]	koff [3] [s⁻¹]	kon [3] [M⁻¹ s⁻¹]
MEK904 Fab (Fab, V domains shown, Fab) VH: QVQLQESGPGLVKPSETLSLTCTVSGGSISSDYWGWIRQPPGKGLEWIGYISYRGSTNYNPSLKSRVTISVDTSRNQFSLKLSSVTAADTAVYYCARSAGVADFDFWGQGTLVTVSS VL: DIQLTQSPSSVSASVGDRVTITCRASQGISSWLAWYQHKPGKAPKLLIYVASSLQSGVPSRFSGSGSGTDFTLTISSLQPEDFATYYCQQASSFPLTFGGGTKVEIK	0.69	0.00015	210000						
CLJ397 Fab (Fab, V domains shown, Fab) VH: QVQLQESGPGLVKPSETLSLTCTVSGGSISSDYWGWIRQPPGKGLEWIGYISYRGSTNYNPSLKSRVTISVDTSRNQFSLKLSSVTAADTAVYYCARSAGVADFDAWGQGTLVTVSS VL: DIQLTQSPSSVSASVGDRVTITCRASQGISSWLAWYQHKPGKAPKLLIYVASSLQSGVPSRFSGSGSGTDFTLTISSLQPEDFATYYCQQASSFPLTFGGGTKVEIK	0.55	0.00015	270000						
EJT070 Fab (Fab, V domains shown, Fab) VH: QVQLQESGPGLVKPSETLSLTCTVSGGSISSDYWGWIRQPPGKGLEWIGYISYSGSTNYNPSLKSRVTISVDTSRNQFSLKLSSVTAADTAVYYCARSAGVADFDFWGQGTLVTVSS VL: DIQLTQSPSSVSASVGDRVTITCRASQGISSWLAWYQHKPGKAPKLLIYVASSLQSGVPSRFSGSGSGTDFTLTISSLQPEDFATYYCQQASSFPLTFGGGTKVEIK	0.82	0.0002	250000						
IFQ920 Fab (Fab, V domains shown, Fab) VH: QVQLQESGPGLVKPSETLSLTCTVSGGSISSDFWGWIRQPPGKGLEWIGYISSRGSTNYNPSLKRRVTISVDTSRNQFSLKLSSVTAADTAVYYCARSAGVADFDFWGQGTLVTVSS VL: DIQMTQSPSSVSASVGDRVTITCRASQGISSWLAWYQHKPGKAPKLLIYVASSLQSGVPSRFSGSGSGTDFTLTISSLQPEDFATYYCQQANSAPLTFGGGTKVEIK	8.28	0.00233	281000						
WAZ460 (antibody, human IgG1, V domains shown, human IgG1) VH: VQLVQSGAEVKKPGASVKVSCKASGYTFTNFYIHWVRQAPGQGLEWMGSIYPNYGITAYNQKFKDRVTMTVDTSTSTAYMELRSLRSDDTAVYYCARGYSYAMDYWGQGTTVTVSS VL: DIQMTQSPSSVSASVGDRVTITCRASQGISGDLNWYQQKPGKAPKLLIYHTSQLHSDVPSRFSGSGSGTDFTLTISSLQPEDFATYYCQGYSKDLLTFGGGTKLEIK				0.331	0.00016	485000	0.515	0.000202	393000
YCF391 (antibody, human IgG1, V domains shown, human IgG1) VH: VQLVQSGAEVKKPGASVKVSCKASGYTFTNFYIHWVRQAPGQGLEWMGSTYPNYGITAYNQKFKDRVTMTVDTSTSTAYMELRSLRSDDTAVYYCARGYSYAMDYWGQGTTVTVSS VL: DIQMTQSPSSVSASVGDRVTITCSASQGISGDLNWYQQKPGKAPKLLIYHTSQLHSDVPSRFSGSGSGTDFTLTISSLQPEDFATYYCQGYSKDLLTFGGGTKLEIK				0.664	0.00026	391000	0.808	0.000336	416000
ZTD928 (antibody, human IgG1, V domains shown, human IgG1) VH: VQLVQSGAEVKKPGASVKVSCKASGYTFTNFYIHWVRQAPGQGLEWMGSIYPNYGITAYNQKFKDRVTMTVDTSTSTAYMELRSLRSDDTAVYYCARGYSYAMDYWGQGTTVTVSS VL: DIQMTQSPSSVSASVGDRVTITCSASQGISGDLNWYQQKPGKAPKLLIYHTSQLHSDVPSRFSGSGSGTDFTLTISSLQPEDFATYYCQGYSKDTLTFGGGTKLEIK				0.502	0.000243	483000	0.801	0.00028	349000

— patent EP4671273A1 (Anaveon AG, dated 2025)
